Measurements taken from patent publication US20230295324A1 (published 2023).
Residue numbers refer to the chain shown, from its start.

B1: PR002061 (antibody, human IgG1, V domains shown)
VH: EVQLLESGGGLVQPGGSLRLSCAASGFTFSSYAMSWVRQAPGKGLEWVSAISGRGGSTYYADSVRGRFTISRDNSKNTLYLQMNSLRAEDTAVYYCANGMTGTTDVDYWGQGTLVTVSS
notes: no light chain; also called anti-OX40 HCAb antibody
B2: PR002057 (antibody, human IgG1, V domains shown)
VH: B1 VH with T28I, R54G, Y59F, N98D
notes: as for B1
B3: PR002059 (antibody, human IgG1, V domains shown)
VH: B1 VH with A23V, A24V, F27L, L45R, Y59F, T103S
notes: as for B1
B4: PR002062 (antibody, human IgG1, V domains shown)
VH: B1 VH with L45Q, R54S, Y59F, N84S
notes: as for B1
B5: PR002068 (antibody, human IgG1, V domains shown)
VH: B1 VH with T28S, S35T, R54G, T58I, Y59F, T103S, L114Q
notes: as for B1
B6: PR002064 (antibody, human IgG1, V domains shown)
VH: B1 VH with L5V, S7T, L45Q, R54S, Y59F, N84S
notes: as for B1
B7: PR002056 (antibody, human IgG1, V domains shown)
VH: B1 VH with R54G, T58I, Y59F
notes: as for B1
B8: PR002070 (antibody, human IgG1, V domains shown)
VH: B1 VH with A23I, T28S, Y59F, T69N, A88V
notes: as for B1
B9: PR002071 (antibody, human IgG1, V domains shown)
VH: B1 VH with L5V, R54G, T58I, Y59F
notes: as for B1
B10: PR002069 (antibody, human IgG1, V domains shown)
VH: B1 VH with L45R, R54G, S57N, Y59F, M100V
notes: as for B1
B11: PR002076 (antibody, human IgG1, V domains shown)
VH: B1 VH with R54S, S57N, L114R
notes: as for B1
B12: PR002072 (antibody, human IgG1, V domains shown)
VH: B1 VH with P41S, V48I, R54S, E89D, Y108F, L114P
notes: as for B1
B13: PR002060 (antibody, human IgG1, V domains shown)
VH: B1 VH with S31D, N84T
notes: as for B1
B14: PR002075 (antibody, human IgG1, V domains shown)
VH: B1 VH with L5V, S7T, V12I, R54S, S57N, M100I, L114R
notes: as for B1

These binders were tested against T1, human OX40 on cells (CHO-K1/hu OX40) (human, UniProt P43489 29-277) (assay: FACS, CHO-K1/hu OX40 cells).
T1 construct: whole, on cells; Also used here for OX40 on the HEK293/OX40/NF-kb reporter cells and on human T cells in the functional assays; also called CHO-K1/OX40; human OX40 cells
T1 sequence (looked up): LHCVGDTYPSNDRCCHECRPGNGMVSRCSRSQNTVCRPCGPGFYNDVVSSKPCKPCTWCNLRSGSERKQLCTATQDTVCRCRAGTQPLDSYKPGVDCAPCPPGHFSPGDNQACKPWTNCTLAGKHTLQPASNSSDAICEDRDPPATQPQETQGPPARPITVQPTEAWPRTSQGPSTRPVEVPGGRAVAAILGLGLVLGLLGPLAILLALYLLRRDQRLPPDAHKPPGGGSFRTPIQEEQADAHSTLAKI
Protocol: This example is intended to investigate the in vitro binding activity of anti-human OX40 HCAb monoclonal antibodies to human OX40. The antibody binding assay at the cellular level was performed using a stable CHO-K1 cell strain overexpressing human OX40 (CHO-K1/hu OX40). Briefly, the CHO-K1/hu OX40 cells were digested, resuspended in an F12K complete medium and washed once with PBS. The cell density was adjusted to 1×10⁶ cells/mL with PBS. The cells were seeded in a 96-well V-bottom plate (Corning, #3894) at 100 μL/well, and centrifuged, and then the supernatant was discarded. Then, the test antibodies diluted in a 3-fold gradient at concentrations that were 2 times the final concentrations were added at 100 μL/well. The cells were incubated at 4° C. for 1 h away from light. Thereafter, the cells in each well were rinsed twice with 100 μL of pre-cooled PBS, and centrifuged at 500 g at 4° C. for 5 min, and then the supernatant was discarded. […] The plate was incubated away from light at 4° C. for 30 min. The cells in each well were rinsed twice with 100 μL of pre-cooled PBS, and centrifuged at 500 g at 4° C. for 5 min, and then the supernatant was discarded. Finally, the cells in each well were resuspended in 200 μL of pre-cooled PBS, and the fluorescence signal values were read using a BD FACS CANTOII.

| Binder | EC50 [nM] | Maximum MFI [MFI] |
| --- | --- | --- |
| B1 | 10.9 | 1740 |
| B2 | 12.8 | 1670 |
| B3 | 1.35 | 3630 |
| B4 | 37.9 | 1900 |
| B5 | 10.1 | 2130 |
| B6 | 22.4 | 1570 |
| B7 | 3.12 | 2930 |
| B8 | 4.39 | 2530 |
| B9 | 4 | 3060 |
| B10 | 4.43 | 2990 |
| B11 | 24.6 | 1380 |
| B12 | 5.64 | 1400 |
| B13 | 8.95 | 1860 |

The binders below were run against T1, human OX40 on cells (CHO-K1/hu OX40) (assay: cell-based or functional assay).

| Binder | EC50, HEK293/OX40/NF-kb luciferase reporter [nM] | Maximum fluorescence signal value, HEK293/OX40/NF-kb luciferase reporter [luminescence] |
| --- | --- | --- |
| B1 | 23.2 | 156000 |
| B2 | 14.3 | 172000 |
| B3 | 1.83 | 117000 |
| B4 | 25.2 | 149000 |
| B5 | 22.9 | 139000 |
| B6 | 30.3 | 147000 |
| B7 | 4.89 | 154000 |
| B8 | 7.6 | 129000 |
| B9 | 7.85 | 144000 |
| B10 | 6.27 | 99700 |
| B11 | 67 | 141000 |
| B12 | 14.2 | 99600 |
| B13 | 15.1 | 132000 |

What follows are binders tested against T1, human OX40 on cells (CHO-K1/hu OX40) (assay: FACS, blocking of biotin-human OX40L on CHO-K1/hu OX40 cells).
Protocol: Briefly, the CHO-K1/hu OX40 cells were digested and resuspended in an F-12K complete medium, and the cell density was adjusted to 1×10⁶ cells/mL. The cells were seeded in a 96-well V-bottom plate (Corning, #3894) at 100 μL/well, and centrifuged, and then the supernatant was discarded. The test antigen-binding proteins diluted in a 3-fold gradient at concentrations that were 2 times the final concentrations were added at 100 μL/well, and the mixture was well mixed, wherein the antigen-binding protein had the highest final concentration of 100 nM, and a total of 8 concentrations were obtained. […] The cells were incubated at 4° C. for 1 h away from light. Thereafter, the cells were centrifuged at 4° C. for 5 min, and then the supernatant was discarded. […] The cells in each well were rinsed twice with 100 μL of pre-cooled PBS, and centrifuged at 500 g at 4° C. for 5 min, and then the supernatant was discarded. A 1:200 fluorescent secondary antibody PE Streptavidin (BD Biosciences, #554061) was added at 100 μL/well, and the cells were incubated away from light at 4° C. for 30 min. The cells in each well were rinsed twice with 200 μL of pre-cooled PBS, and centrifuged at 500 g at 4° C. for 5 min, and then the supernatant was discarded. Finally, the cells in each well were resuspended in 200 μL of precooled PBS. Fluorescence signal values were read using BD FACS CANTOII, and IC50 was calculated. Inhibition rate %={average MFI of non-blocking control well−MFI value of OX40 antibody}/{(average MFI of non-blocking control well)−average MFI of 100% blocking control well)}×100%.

| Binder | Maximum inhibition rate (%) | IC50 [nM] |
| --- | --- | --- |
| B1 | 16 |  |
| B2 | 12 |  |
| B3 | 79 | 15.9 |
| B4 | 13 |  |
| B5 | 25 | 23.1 |
| B6 | 20 |  |
| B7 | 34 | 43.7 |
| B8 | 46 | 67.6 |
| B9 | 50 | 51.7 |
| B10 | 53 | 50.9 |
| B11 | 0 |  |
| B12 | 14 |  |
| B13 | 12 |  |

The binders below were run against T2, human OX40 protein (Acro biosystem, #OX0-H5224) (human, UniProt P43489 29-216) (assay: ELISA, coated human OX40 protein).
T2 construct: Bought recombinant protein
T2 sequence (looked up): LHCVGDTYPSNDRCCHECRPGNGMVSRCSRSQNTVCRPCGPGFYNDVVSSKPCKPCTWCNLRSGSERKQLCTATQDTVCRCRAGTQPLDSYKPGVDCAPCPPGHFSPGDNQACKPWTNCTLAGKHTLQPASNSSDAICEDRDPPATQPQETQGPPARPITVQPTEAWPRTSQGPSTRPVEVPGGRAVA
Protocol: (§1) This example is intended to investigate the in vitro binding activity of the anti-OX40 HCAb monoclonal antibodies prepared in Example 1 to human and cynomolgus monkey OX40 proteins. The antibody binding assay at the protein level was performed using a human OX40 protein (Acro biosystem, #OX0-H5224) and a cynomolgus monkey OX40 protein (Novoprotein, #CB17). Briefly, a 384-well plate (PerkinElmer, #6007509) was coated with 1 μg/mL human OX40 protein and a cynomolgus monkey OX40 protein dissolved in PBS at 20 μL/well, and incubated at 4° C. overnight. The next day, the 384-well plate was washed three times with PBS containing 0.05% Tween (MEDICAGO, #09-9410-100), and blocked with PBS containing 2% milk (Bio-Rad, #170-6404) at 37° C. for 1 h. […] The plate was added with a stop buffer (BBI life sciences, #E661006-0200) at 20 μL/well, and read for OD₄₅₀₋₆₅₀ values using a plate reader (Molecular Devices, model: SpectraMax Plus). The values were analyzed with Graphad 8.0 and plotted.

| Binder | EC50 [nM] | Maximum OD [OD] |
| --- | --- | --- |
| B1 | 0.134 | 1.96 |
| B2 | 0.124 | 1.76 |
| B3 | 0.0695 | 2 |
| B4 | 0.103 | 1.94 |
| B5 | 0.092 | 2.42 |
| B6 | 0.0814 | 2.28 |
| B7 | 0.057 | 1.71 |
| B14 | 0.0618 | 2.48 |
| B8 | 0.0729 | 2.4 |
| B9 | 0.0502 | 2.45 |
| B10 | 0.051 | 2.24 |
| B11 | 0.065 | 2.8 |
| B12 | 0.0577 | 2.47 |
| B13 | 0.0828 | 2.09 |

What follows are binders tested against T3, cynomolgus monkey OX40 protein (Novoprotein, #CB17) (cynomolgus monkey) (assay: ELISA, coated cyno OX40 protein).
T3 construct: Bought recombinant protein; also called cyno OX40
Protocol: as §1

| Binder | EC50 [nM] | Maximum OD [OD] |
| --- | --- | --- |
| B1 | 0.152 | 1.87 |
| B2 | 0.133 | 1.76 |
| B3 | 0.0774 | 1.9 |
| B4 | 0.126 | 1.81 |
| B5 | 0.253 | 2.38 |
| B6 | 0.218 | 2.08 |
| B7 | 0.0682 | 1.69 |
| B14 | 0.415 | 3.07 |
| B8 | 0.132 | 2.51 |
| B9 | 0.202 | 2.93 |
| B10 | 0.129 | 2.24 |
| B11 | 0.116 | 2.05 |
| B12 | 0.217 | 2.97 |
| B13 | 0.0938 | 1.94 |
